Assays:
Experiment in all cases: crystal structure; purified OmpC in detergent (0.6% HESO + 0.1% OPOE, or 1% βOG), crystals grown at 20°C or room temperature; trimer in the crystal
[1] = target: OmpC26 (E. coli (clinical isolate)) (UniProt P06996)
[2] = target: OmpC20 (E. coli (clinical isolate)) (UniProt P06996)
[3] = target: the molecule itself

Molecule: OmpC26 (from UniProt P06996 22-367) (natural protein)
- stoichiometry N [1]: 3

Molecule: OmpC20 (from UniProt P06996 22-367) (natural protein)
- stoichiometry N [2]: 3

B1: OmpCO6 (natural protein)
chain: AEVYNKDGNKLDLYGKVDGLHYFSDDKSVDGDQTYMRLGFKGETQVTDQLTGYGQWEYQIQGNAPESENNSWTRVAFAGLKFQDIGSFDYGRNYGVVYDVTSWTDVLPEFGGDTYGSDNFMQQRGNGFATYRNTDFFGLVDGLNFAVQYQGQNGSVSGENDPDFTGHGITNNGRKALRQNGDGVGGSITYDYEGFGVGAAVSSSKRTWDQNNTGLIGTGDRAETYTGGLKYDANNIYLAAQYTQTYNATRVGSLGWANKAQNFEAVAQYQFDFGLRPSVAYLQSKGKNLGVVAGRNYDDEDILKYVDVGATYYFNKNMSTYVDYKINLLDDNQFTRAAGINTDDIVALGLVYQF
notes: gene amplified by PCR and expressed from pHSG575; Trimer in the crystal; also called OmpC from uropathogenic E. coli O6:H1; source: E. coli strain lacking porins, plasmid pHSG575; purified (detergent extraction, POROS-HQ anion exchange, Superdex 200 gel filtration)
- stoichiometry N [3]: 3

Source: article PMC3203869, “Altered Antibiotic Transport in OmpC Mutants Isolated from a Series of Clinical Strains of Multi-Drug Resistant E. coli” (PLoS ONE, 2011)
